Series [1] addresses T1, Recombinant human VAMP8 (endobrevin) cytoplasmic portion 1-74 (UniProt Q9BV40).
T1 sequence: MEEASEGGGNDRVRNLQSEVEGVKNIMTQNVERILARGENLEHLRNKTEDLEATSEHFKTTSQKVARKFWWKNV

Series [2] has as its target K85A-R86S-K87A mutant rat VAMP2 cytoplasmic portion 1-96 (UniProt P63045).
Series [3] has as its target Assembled ternary SNARE complex (syntaxin1A 1-263 : SNAP25 : VAMP2 1-96) (UniProt P32851).
Series [4] concerns the target Recombinant wild type rat SNAP25 full length 1-206 (UniProt P60881).
In series [5] the test system is Native guinea pig VAMP8 in isolated pancreatic zymogen granules.
Series [6] concerns Native guinea pig VAMP2 in isolated pancreatic zymogen granules.

Chain of K85A-R86S-K87A mutant rat VAMP2 cytoplasmic portion 1-96 (P63045 1-96 K85A/R86S/K87A): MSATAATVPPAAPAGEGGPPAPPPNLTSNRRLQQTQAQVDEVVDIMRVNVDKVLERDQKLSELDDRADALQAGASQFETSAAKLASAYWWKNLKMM
Chain of Assembled ternary SNARE complex (syntaxin1A 1-263 : SNAP25 : VAMP2 1-96) (P32851 whole entry, looked up, tested part not stated, one chain of several): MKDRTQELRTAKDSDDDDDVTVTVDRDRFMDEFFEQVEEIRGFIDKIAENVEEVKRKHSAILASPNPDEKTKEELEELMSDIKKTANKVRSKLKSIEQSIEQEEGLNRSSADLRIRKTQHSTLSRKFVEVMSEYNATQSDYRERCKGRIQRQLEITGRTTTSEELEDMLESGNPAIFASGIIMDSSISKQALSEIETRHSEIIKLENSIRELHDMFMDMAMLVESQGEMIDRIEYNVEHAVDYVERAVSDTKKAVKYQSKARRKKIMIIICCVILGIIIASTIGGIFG
Chain of Recombinant wild type rat SNAP25 full length 1-206 (P60881 whole entry, looked up, tested part not stated): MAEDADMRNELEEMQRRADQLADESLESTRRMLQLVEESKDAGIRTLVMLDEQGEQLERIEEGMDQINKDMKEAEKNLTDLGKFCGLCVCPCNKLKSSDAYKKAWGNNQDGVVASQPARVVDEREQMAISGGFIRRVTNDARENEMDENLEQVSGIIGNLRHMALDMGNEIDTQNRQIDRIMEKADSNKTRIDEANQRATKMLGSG

As for “Fraction ν of Tityus serrulatus venom (Fx ν metalloprotease)”, the “proteolytic cleavage (transblot, mass spectrometry)” value in series [1] is listed as “is cleaved upon exposure to Fx ν”. Further, in series [2], the “proteolytic cleavage (PAGE, reverse phase chromatography, sequencing)” value is given as “these substitutions prevented the previously observed cleavage”. Further, the “proteolytic cleavage (PAGE staining density, 60 min)” value in series [3] is “a clear change in staining density indicating the occurrence of cleavage by Fx ν of both the assembled complex (not boiled, lane 3) and the unassembled SNARE complex proteins (boiled, lane 4)”. The “proteolytic cleavage (transblot)” value in series [4] is on record as “is a t-SNARE that is also cleaved by Fx ν”. Further, the “proteolytic cleavage (Western blot of isolated zymogen granules)” value in series [5] was “VAMP8 is also a proteolytic target in ZG during incubation with Fx ν”; in series [6], “whole TSV or Fx ν rapidly cleave VAMP2 (upper panel) even in short incubation periods (5 and 30 min)”.

The record behind these values is patent publication US20120225049.
